Here are results for one molecule from patent publication US20100278838A1, “EPHA2 MONOCLONAL ANTIBODIES AND METHODS OF USE THEREOF” (MEDIMMUNE, LLC, priority 2002, published 2010).

Assay [1] relates to control MCF-7 cells. In words: Soft agar colonization of control MCF-7 cells. The assay is classed as cell-based. To be noted: EA2 10 μg/ml, tamoxifen 1 μM. The method, then:
(§1) FIGS. 11A-11B: EphA2 overexpression decreases tamoxifen sensitivity. (A) 1×10^5 MCF-7 or MCF-7^EphA2 cells were suspended in soft agar in the presence of 1 μM tamoxifen (TAM) and or 1 μM 17β-estradiol and colony formation was evaluated microscopically after 14 days. (B) MCF-7 (circles) or MCF-7^EphA2 cells (squares) were implanted into the mammary fatpad (n=15 mice per group) in the presence of supplemental estrogen. Tamoxifen treatment was initiated 17 days post-implantation. Tumor volume of tamoxifen treated (black circles and squares) and saline treated (white circles and squares) animals was measured at the indicated time.
(§2) FIGS. 13A-13C: EphA2 agonistic antibody EA2 decreases malignant growth. MCF-7^EPhA2 cells were incubated in the presence of 3 μg/ml of EA2 for the time indicated prior to sample extraction and western blot analyses with an EphA2-specific antibody (D7). […]
(§3) EphA2 overexpression increased malignant growth (FIGS. 8A-8B). […] Colony formation in soft agar was performed as previously described (Zelinski et al., 2001, Cancer Res. 61:2301-6) and scored microscopically, defining clusters of at least three cells as a positive. […] Error bars represent the standard error of the mean of at least three different experiments as determined using Microsoft Excel software.
(§4) Sensitivity of MCF-7^EphA2 cells to tamoxifen was measured. […]

In assay [2] the test system is MCF-7^EphA2 cells. In words: Soft agar colonization of MCF-7^EphA2 cells. The assay is classed as cell-based, human. To be noted: EA2 10 μg/ml, tamoxifen 1 μM. The method, then: as §1, §2, §3, §4
For assay [3], the target named is EphA2 (Homo sapiens, UniProt P29317). In words: EphA2 expression level in MCF-7^EphA2 cells after EA2 (western blot). To be noted: 3 μg/ml EA2. It is filed as cell-based. The method, then:
FIGS. 13A-13C: EphA2 agonistic antibody EA2 decreases malignant growth. MCF-7^EPhA2 cells were incubated in the presence of 3 μg/ml of EA2 for the time indicated prior to sample extraction and western blot analyses with an EphA2-specific antibody (D7). (B) The membrane was stripped and re-probed with a β-catenin-specific antibody as a loading control. (C) 1×10^5 control or MCF-7^EphA2 cells were suspended in soft agar in the presence or absence of tamoxifen (TAM, 1 μM) and EphA2 agonistic antibody (EA2, 10 μg/ml).
Growth MCF-7^EphA2 cells which had decreased EphA2 expression levels was assayed in soft agar. The EphA2 monoclonal antibody EA2 induced EphA2 activation and subsequent degradation. […] Whereas EA2 decreased soft agar colonization (by 19%), the combination of EA2 and tamoxifen caused a much more dramatic (>80%) decrease in soft agar colonization.
In general terms: In western blotting, separated proteins are transferred to a membrane and probed.

In assay [4] the test system is EphA2 on non-transformed MCF-10A cells. In words: Flow cytometry of EA2 binding, non-transformed cells with or without EGTA. The assay is classed as cell-based. The settings on record: 10 μg/ml EA2; 4 mM EGTA 10-15 minutes on ice. The method, then: (A, B) Non-transformed MCF-10A cells were labeled with EA2 at 4° C. either before (A) or after (B) treatment with EGTA and prior to fixation and immunolabeling with fluorophore-conjugated anti-mouse IgG. (C, D) Non-transformed MCF-10A (C) or transformed MDA-MB-231 (D) cells were labeled with EA2 either before (middle) or after (top) treatment with EGTA. Control cells were incubated with secondary antibody alone (bottom). The amount of EA2-EphA2 binding was measured using flow cytometry.
An equivalent experiment was performed using MCF-10A or MDA-MB-231 cells. The amount of EA2 binding to EphA2 was measured using flow cytometry (FIGS. 17C-17D). Cells were either treated by incubation in 4 mM EGTA for 10-15 minutes on ice (top panel) or were not treated with EGTA (middle panel) before incubation with 10 μg/ml EA2. Cells were then fixed with 3% formalin and labeled with fluorophore-labeled donkey anti-mouse IgG. Control cells were incubated only with secondary antibody (fluorophore-labeled donkey anti-mouse IgG) in the absence of primary antibody (EA2) (bottom panel). The samples were then evaluated using flow cytometry (Becton Dickinson FACStar Plus).

Assay [5] has as its target T1, EphA2-Ephrin A1-Fc-EA2 complex (Homo sapiens, UniProt P29317).
T1 construct: consisting of the extracellular domain of EphA2 linked to human IgG1 constant region
In words: Displacement of labeled EA2 from EphA2-Ephrin A1-Fc complex by unlabeled competitor. The assay is classed as binding. The settings on record: biotinylated EA2 10 μg/ml, 30 min. As for the experimental part: FIGS. 18A-18B: EphA2 EA2 epitope is distinct from Eph099B-233.152 epitope and ligand binding site. (A) EphA2-Fc was incubated with and bound to immobilized Ephrin A1-Fc. Labeled Ephrin A1-Fc (black), EA2 (white) or Eph099B-233.152 (grey) was incubated with the EphA2-Ephrin A1-Fc complex and amount of binding was measured. (B) EphA2-Fc was incubated with and bound to immobilized Ephrin A1-Fc. Labeled EA2 was then incubated with the EphA2-Ephrin A1 complex. Unlabeled competitor was incubated with EphA2-Ephrin A1-EA2 complex in the indicated amount. Competitors were Ephrin A1-Fc (black), EA2 (white) or Eph099B-233.152 (grey).
The EphA2-Ephrin A1-Fc complex was prepared as described above. Biotinylated EA2 (10 μg/ml) was then incubated with the complex for 30 min. Unlabeled competitor was incubated with EphA2-Ephrin A1-Fc-EA2 complex in the indicated amount. Unlabeled EA2 could displace the labeled EA2 at concentrations of 100 ng/ml or greater.

EphA2, sequence (P29317 24-976): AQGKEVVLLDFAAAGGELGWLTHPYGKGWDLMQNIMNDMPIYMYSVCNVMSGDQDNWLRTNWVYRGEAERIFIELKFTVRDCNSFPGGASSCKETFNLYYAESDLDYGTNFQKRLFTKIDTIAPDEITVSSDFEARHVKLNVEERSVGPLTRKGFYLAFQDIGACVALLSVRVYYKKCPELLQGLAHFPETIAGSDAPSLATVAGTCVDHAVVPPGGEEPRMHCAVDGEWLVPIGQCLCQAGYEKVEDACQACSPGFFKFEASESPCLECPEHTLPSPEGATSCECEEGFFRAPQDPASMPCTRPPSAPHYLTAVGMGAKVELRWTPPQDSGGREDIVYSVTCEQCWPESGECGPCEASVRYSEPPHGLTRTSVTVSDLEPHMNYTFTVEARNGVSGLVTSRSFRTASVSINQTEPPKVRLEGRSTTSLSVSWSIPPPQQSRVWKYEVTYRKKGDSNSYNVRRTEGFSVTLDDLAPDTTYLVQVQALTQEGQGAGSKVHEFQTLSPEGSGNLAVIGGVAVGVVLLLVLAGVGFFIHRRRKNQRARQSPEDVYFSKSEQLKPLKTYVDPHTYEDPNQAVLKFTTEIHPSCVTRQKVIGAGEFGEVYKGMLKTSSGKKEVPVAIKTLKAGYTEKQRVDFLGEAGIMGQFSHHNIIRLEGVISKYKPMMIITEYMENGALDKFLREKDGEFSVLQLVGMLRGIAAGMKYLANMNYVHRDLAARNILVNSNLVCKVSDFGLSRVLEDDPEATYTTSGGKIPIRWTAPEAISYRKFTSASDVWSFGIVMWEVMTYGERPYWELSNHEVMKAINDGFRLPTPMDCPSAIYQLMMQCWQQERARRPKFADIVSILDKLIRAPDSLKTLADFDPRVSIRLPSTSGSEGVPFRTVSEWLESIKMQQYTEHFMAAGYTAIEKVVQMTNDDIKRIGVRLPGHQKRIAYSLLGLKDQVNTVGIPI
T1 sequence (P29317 24-537 limits assumed): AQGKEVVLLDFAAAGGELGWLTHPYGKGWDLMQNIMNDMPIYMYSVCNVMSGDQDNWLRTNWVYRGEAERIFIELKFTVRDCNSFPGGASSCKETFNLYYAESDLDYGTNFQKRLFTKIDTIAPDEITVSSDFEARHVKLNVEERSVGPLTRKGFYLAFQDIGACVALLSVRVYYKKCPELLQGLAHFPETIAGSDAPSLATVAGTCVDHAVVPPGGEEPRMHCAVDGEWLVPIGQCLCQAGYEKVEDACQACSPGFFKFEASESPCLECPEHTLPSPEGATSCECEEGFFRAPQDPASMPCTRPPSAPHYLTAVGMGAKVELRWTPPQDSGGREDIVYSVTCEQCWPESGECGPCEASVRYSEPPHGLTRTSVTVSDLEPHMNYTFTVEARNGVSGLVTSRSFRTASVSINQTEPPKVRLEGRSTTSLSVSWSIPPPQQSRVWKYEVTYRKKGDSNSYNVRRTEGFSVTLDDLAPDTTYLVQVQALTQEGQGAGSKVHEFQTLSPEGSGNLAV
T1 sequence (P20827 19-182 partner limits assumed): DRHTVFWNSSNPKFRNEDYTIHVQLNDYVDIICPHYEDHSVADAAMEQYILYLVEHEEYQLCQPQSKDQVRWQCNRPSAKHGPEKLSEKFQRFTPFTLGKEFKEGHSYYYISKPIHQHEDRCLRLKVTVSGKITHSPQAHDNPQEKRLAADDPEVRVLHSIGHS

B1: EA2: EphA2 agonistic monoclonal antibody; ATCC deposit no. PTA-4380; co-pending application Ser. No. 10/436,783; VL SEQ ID NO:33, VH SEQ ID NO:37 (antibody, listed as Homo Sapiens, V domains shown)
VH: DVKLVESGGGLVKPGGSLKLSCAASGFTFSSYTMSWVRQTPEKRLEWVATISSGGTYTYYPDSVKGRFTISRDNAKNTLYLQMSSLKSEDTAMYYCTREAIFTYWGQGTLVTVSA
VL: DIKMTQSPSSMYASLGERVTITCKASQDINNYLSWFQQKPGKSPKTLIYRANRLVDGVPSRFSGSGSGQDYSLTISSLEYEDMGIYYCLKYDEFPYTFGGGTKLEIK
In the case of B1, in assay [1], the “Effect of EA2 on tamoxifen response of control MCF-7 cells in soft agar” value was “did not further alter this response”. For the same molecule, in assay [2], the “Sensitivity of MCF-7^EphA2 cells to tamoxifen in soft agar” value is “increased the sensitivity of MCF-7^EphA2 cells to tamoxifen” and the “Inhibition / decrease of soft agar colonization, MCF-7^EphA2 cells” value stood at 19%. Moreover, in assay [3], the EphA2 expression level entry is “Decreased levels of EphA2 expression were observed within two hours” and the “Time EphA2 remained undetectable” value is not below 24 h. The “Effect of EGTA treatment on EA2 binding, non-transformed cells” value in assay [4] is given as “increased by incubation in EGTA”. For the same molecule, in assay [5], the “Concentration of unlabeled competitor displacing labeled EA2” value was not below 100 ng/mL.
